{"source": "paper PMC12205653", "about": "(The Journal of Biological Chemistry, 2025)", "molecules": {"B1": {"name": "His6-MBP-SmBiT-CAPNS1 (domain or fragment, human, UniProt P04632 60-268, looked up)", "chain": "RILGGVISAISEAAAQYNPEPPPPRTHYSNIEANESEEVRQFRRLFAQLAGDDMEVSATELMNILNKVVTRHPDLKTDGFGIDTCRSMVAVMDSDTTGKLGFEEFKYLWNNIKRWQAIYKQFDTDRSGTICSSELPGAFEAAGFHLNEHLYNMIIRRYSDESGNMDFDNFISCLVRLDAMFRAFKSLDKDGTGQIQVNIQEWLQLTMYS", "notes": "CAPNS1, calpain small regulatory subunit, human, penta-EF-hand domain PEF(S), residues 60-268; Same CAPNS1 stretch as m1 with other tags; m4 with m1 measures the PEF(S):PEF(S) homodimer of CAPNS1; not shown: His6, N-terminal, kept; MBP, N-terminal, kept; SmBiT, N-terminal, kept"}, "B2": {"name": "SmBiT-CAPN1 (mammalian expression construct) (domain or fragment, human, UniProt P07384 538-714, looked up)", "chain": "LSEEEIDENFKALFRQLAGEDMEISVKELRTILNRIISKHKDLRTKGFSLESCRSMVNLMDRDGNGKLGLVEFNILWNRIRNYLSIFRKFDLDKSGSMSAYEMRMAIESAGFKLNKKLYELIITRYSEPDLAVDFDNFVCCLVRLETMFRFFKTLDTDLDGVVTFDLFKWLQLTMFA", "notes": "CAPN1, human, PEF(L) domain, residues 538-714, in pBiT2.1-N (TK/SmBiT); source: HEK293T, transfected, in lysate; not shown: SmBiT, N-terminal, kept"}, "B3": {"name": "His6-MBP-SmBiT-CAPN1 (domain or fragment, human, UniProt P07384 538-714, looked up)", "chain": "LSEEEIDENFKALFRQLAGEDMEISVKELRTILNRIISKHKDLRTKGFSLESCRSMVNLMDRDGNGKLGLVEFNILWNRIRNYLSIFRKFDLDKSGSMSAYEMRMAIESAGFKLNKKLYELIITRYSEPDLAVDFDNFVCCLVRLETMFRFFKTLDTDLDGVVTFDLFKWLQLTMFA", "notes": "CAPN1, calpain-1 catalytic subunit, human, penta-EF-hand domain PEF(L), residues 538-714; Cloned in pHT29 (modified pET16b); also called CAPN1 PEF(L) biosensor component; source: E. coli BL21 RIPL; not shown: His6, N-terminal, kept; MBP, N-terminal, kept; SmBiT, N-terminal, kept"}}, "key": {"[1]": {"target": "endogenous CAPN2 (human (endogenous in MDA-MB-231)) (UniProt P17655)", "sequence (P17655 20-700)": "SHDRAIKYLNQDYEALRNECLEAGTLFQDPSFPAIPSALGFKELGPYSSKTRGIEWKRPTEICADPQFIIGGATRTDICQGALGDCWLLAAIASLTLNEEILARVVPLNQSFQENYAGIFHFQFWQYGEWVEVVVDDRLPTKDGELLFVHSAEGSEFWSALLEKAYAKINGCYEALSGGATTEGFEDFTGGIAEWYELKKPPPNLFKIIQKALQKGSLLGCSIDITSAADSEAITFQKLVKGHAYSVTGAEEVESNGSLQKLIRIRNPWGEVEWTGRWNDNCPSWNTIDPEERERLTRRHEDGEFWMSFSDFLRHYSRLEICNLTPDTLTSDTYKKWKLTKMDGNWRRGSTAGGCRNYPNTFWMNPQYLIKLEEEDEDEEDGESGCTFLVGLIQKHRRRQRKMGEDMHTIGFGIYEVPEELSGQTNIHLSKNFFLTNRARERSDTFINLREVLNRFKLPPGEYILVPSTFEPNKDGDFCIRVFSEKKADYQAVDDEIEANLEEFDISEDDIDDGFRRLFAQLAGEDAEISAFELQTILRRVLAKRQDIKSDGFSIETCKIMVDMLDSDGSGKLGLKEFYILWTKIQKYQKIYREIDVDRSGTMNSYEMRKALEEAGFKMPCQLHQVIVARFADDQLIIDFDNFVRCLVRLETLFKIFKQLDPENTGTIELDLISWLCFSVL"}, "[2]": {"target": "T1, His10-LgBiT-CAPNS1 (human, UniProt P04632 60-268)", "T1 construct": "CAPNS1, calpain small regulatory subunit, human, penta-EF-hand domain PEF(S), residues 60-268; Cloned in pET16b; also called CAPNS1 PEF(S) biosensor component; source: E. coli BL21 RIPL; not shown: His10, N-terminal, kept; LgBiT, N-terminal, kept", "T1 sequence (looked up)": "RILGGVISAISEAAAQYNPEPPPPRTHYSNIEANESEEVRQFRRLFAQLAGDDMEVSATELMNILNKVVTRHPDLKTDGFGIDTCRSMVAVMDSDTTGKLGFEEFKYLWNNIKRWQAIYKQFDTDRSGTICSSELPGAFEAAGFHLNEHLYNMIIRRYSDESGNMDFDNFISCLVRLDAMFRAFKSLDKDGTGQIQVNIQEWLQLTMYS", "assay": "split reporter (BiFC, NanoBiT); fixed 100 nM LgBiT-CAPNS1, increasing SmBiT component, 5 mM Ca2+; estimated KD from the inflection of the plot assuming first-order kinetics; for CAPNS1 with CAPNS1: dimer to monomers", "conditions": "both partners purified"}, "[3]": {"target": "T2, LgBiT-CAPNS1 (mammalian expression construct) (human, UniProt P04632 60-268)", "T2 construct": "CAPNS1, human, PEF(S) domain, residues 60-268, in pBiT1.1-N (TK/LgBiT); source: HEK293T, transfected, in lysate; not shown: LgBiT, N-terminal, kept", "T2 sequence (looked up)": "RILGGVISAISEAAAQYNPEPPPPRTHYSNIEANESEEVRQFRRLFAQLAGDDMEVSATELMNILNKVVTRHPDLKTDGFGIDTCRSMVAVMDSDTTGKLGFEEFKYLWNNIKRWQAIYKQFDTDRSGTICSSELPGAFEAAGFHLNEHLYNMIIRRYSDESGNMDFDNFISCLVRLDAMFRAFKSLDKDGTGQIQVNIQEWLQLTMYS", "assay": "split reporter (BiFC, NanoBiT); LgBiT and SmBiT fusions coexpressed pairwise in transfected HEK293T cells; luciferase signal of cell lysates as fold change over a LgBiT-alone control", "conditions": "partners not purified"}, "[4]": {"target": "T1, His10-LgBiT-CAPNS1", "assay": "split reporter (BiFC, NanoBiT); fixed 100 nM LgBiT-CAPNS1, increasing SmBiT-CAPN1/2, 5 mM Mg2+ in place of Ca2+; estimated KD from the inflection of the plot assuming first-order kinetics", "conditions": "both partners purified"}, "[5]": {"target": "T1, His10-LgBiT-CAPNS1", "assay": "split reporter (BiFC, NanoBiT); crude bacterial lysates with approximately equimolar biosensor components; 5 mM Mg2+, no Ca2+; fold over His10-LgBiT-CAPNS1 alone", "conditions": "partners not purified"}}, "data": [{"molecule": "recombinant CAPNS1 Q263R (pMSCV_CAPNS1) (from UniProt P04632 1-268) (natural protein)", "values": [{"measurement": "calpain-2 casein proteolytic activity (zymography of cell lysates), standardized to CAPN2 expression, against WT CAPNS1", "setting": "[1]", "value": "51 % of the WT"}]}, {"molecule": "B1", "values": [{"measurement": "Kd", "setting": "[2]", "value": 635, "unit": "nM"}]}, {"molecule": "B2", "values": [{"measurement": "fold increase of bioluminescence over LgBiT-CAPNS1 alone", "setting": "[3]", "value": "~400", "unit": "fold"}]}, {"molecule": "B3", "values": [{"measurement": "Kd", "setting": "[2]", "value": 185, "unit": "nM"}, {"measurement": "Kd", "setting": "[4]", "value": 362, "unit": "nM"}, {"measurement": "fold signal over LgBiT-CAPNS1 alone", "setting": "[5]", "value": 47, "unit": "fold"}]}]}
